Here are results for two molecules from PMC11623273.

In assay [1] the target is Fab AP33 (Mus musculus). The settings on record: domain or fragment; Disulfide-linked heavy and light Fab chains. No candidate fits and the paper prints no AP33 sequence. PDB 4GAG (murine AP33 Fab with the E2 412-423 peptide) is cited from memory; entities 1 and 2 are assumed to be the antibody chains, and the peptide entity is excluded. The C-terminal double Strep tag on the heavy chain is omitted. The constant-region species of the S2-expressed Fab is not given; modification not given.

Assay [2] deals with Fab AP33 (Mus musculus). The settings on record: other; Disulfide-linked heavy and light Fab chains. No candidate fits and the paper prints no AP33 sequence. PDB 4GAG (murine AP33 Fab with the E2 412-423 peptide) is cited from memory; entities 1 and 2 are assumed to be the antibody chains, and the peptide entity is excluded. The C-terminal double Strep tag on the heavy chain is omitted. The constant-region species of the S2-expressed Fab is not given; modification not given.

Like-named read-outs stand apart in the source and are kept apart here.

B1: soluble HCV E2 ectodomain (sE2) (protein)
chain: GTTTVGGAVARSTNVIAGVFSHGPQQNIQLINTNGSWHINRTALNCNDSLNTGFLAALFYTNRFNSSGCPGRLSACRNIEAFRIGWGTLQYEDNVTNPEDMRPYCWHYPPKPCGVVPARSVCGPVYCFTPSPVVVGTTDRRGVPTYTWGENETDVFLLNSTRPPQGSWFGCTWMNSTGFTKTCGAPPCRTRADFNASTDLLCPTDCFRKHPDATYIKCGSGPWLTPKCLVHYPYRLWHYPCTVNFTIFKIRMYVGGVEHRLTAACNFTRGDRCDLEDRDRSQLSPLLHSTTEWAILPCTYSDLPALSTGLLHLHQNIVDVQYMYGLSPAITKYVVR
The term Kd denotes the concentration at which binding is half-saturated. Higher therefore signals weaker binding. B1 showed a Kd in the assay with Fab AP33 (Mus musculus) [1] of 58.4 nM.

B2: E2_S2_1 (design 2K6Z_01), epitope scaffold displaying HCV E2 epitope I (protein)
chain: MGSFTEGWVRFSPGPNAAAYLTLENPGDLPLRLVGARTPVAERVELWETQLINTNGSWHIGSRPVPFLEVPPKGRVELSPGGYYFHLLGLKRPLKAGEEVELDLLFAGGKVLKVVLPVEARGSENLYFQ
In the assay with Fab AP33 (Mus musculus) [2], B2 yielded a Kd of 44.9 nM.
